The values below come from PMC6520365, “Structural and functional characterization of the PDZ domain of the human phosphatase PTPN3 and its interaction with the human papillomavirus E6 oncoprotein” (Scientific Reports, 2019).

Holding throughout (conditions): both partners purified
The target of test [1] is HPV18E6 PBM peptide (C-terminal sequence of the human papillomavirus type 18 E6 protein) (human papillomavirus type 18). The test is described as follows: NMR titration; unlabeled peptide added stepwise to 15N-labeled PTPN3-PDZ at 95 or 149 μM; 1H,15N HSQC chemical shift perturbations; 15 °C; 50 mM Tris/HCl pH 7.5, 150 mM NaCl, 0.5 mM TCEP; KD from 8 to 14 fitted curves.
Test [2] has as its target T1, PDZ domain of the human protein tyrosine phosphatase non-receptor type 3 (PTPN3-PDZ) (human, UniProt P26045-1 504-913, Start 504 is printed. End 597 comes from the 6HKS entity and fits the printed 94 residues (89 non-Pro). GST removed by TEV; any residual tag residues left out.). The description is as above.
Test [3] concerns the target PTPN3-PDZ_(Next), PDZ domain of human PTPN3 extended at the N-terminus by 15 residues of its wild-type … (human, UniProt P26045-1 489-913, Start 489 is 504 minus the 15 residues printed. End 597 comes from the 6HKS entity (residues 6-114); its GAMGS tag remnant is left out.). The test is described as follows: AUC; sedimentation velocity, PTPN3-PDZ_(Next) at 70 μM with PBM peptide, 20 °C, 42000 rpm.

Test [4] addresses T1, PDZ domain of the human protein …. The test is described as follows: AUC; sedimentation velocity, PTPN3-PDZ at 70 μM with HBVc PBM peptide, 20 °C, 42000 rpm.

Sequence of PTPN3-PDZ_(Next), PDZ domain of human PTPN3 extended at the N-terminus by 15 residues of its wild-type … (P26045 489-913): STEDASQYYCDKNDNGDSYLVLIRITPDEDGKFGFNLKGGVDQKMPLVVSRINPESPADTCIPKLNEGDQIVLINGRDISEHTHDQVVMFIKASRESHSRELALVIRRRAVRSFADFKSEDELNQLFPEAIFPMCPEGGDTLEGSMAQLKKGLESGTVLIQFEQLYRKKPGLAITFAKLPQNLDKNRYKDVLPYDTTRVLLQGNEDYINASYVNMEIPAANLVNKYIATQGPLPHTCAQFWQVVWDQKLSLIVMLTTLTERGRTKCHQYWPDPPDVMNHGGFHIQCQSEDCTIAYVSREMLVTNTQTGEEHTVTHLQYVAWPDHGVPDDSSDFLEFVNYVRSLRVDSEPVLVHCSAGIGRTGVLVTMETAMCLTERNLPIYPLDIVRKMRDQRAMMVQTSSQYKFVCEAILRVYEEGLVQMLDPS

B1: PDZ domain of the human protein tyrosine phosphatase non-receptor type 3 (PTPN3-PDZ) (domain or fragment)
chain: GDSYLVLIRITPDEDGKFGFNLKGGVDQKMPLVVSRINPESPADTCIPKLNEGDQIVLINGRDISEHTHDQVVMFIKASRESHSRELALVIRRR
On to B1, for which the Kd (as a rule, a measure of binding affinity in units of concentration) in test [1] came out at 37 µM.

B2: p38γ PBM peptide (C-terminal sequence of the MAP kinase p38γ) (peptide)
peptide: SWARVSKETPL
notes: also called MAPK12 PBM; source: synthetic peptide (Fmoc solid phase, Proteogenix)
B2: the Kd in test [2] turned out to be 26 µM.

B3: HPV16E6 PBM peptide (C-terminal sequence of the human papillomavirus type 16 E6 protein) (peptide)
peptide: RSSRTRRETQL
notes: Only the last seven residues (TRRETQL) are seen in the crystal; also called PBM of HPV16 E6; source: synthetic peptide (Fmoc solid phase, Proteogenix)
As to B3, the stoichiometry N – broadly, a count of units in the complex or per binding partner – in test [3] was 1. The Kd in test [2] was 53 µM.

B4: HBVc PBM peptide (C-terminal sequence of the hepatitis B virus core protein) (peptide)
peptide: RRRRSQSRESQC
notes: also called HBV Core PBM; source: synthetic peptide (Fmoc solid phase, Proteogenix)
Take B4: the “stoichiometry N” value in test [4] and in test [3] was 1 in each case. Moreover, in test [2], the Kd was 29 µM.
